Experimental findings from PMC3421056 (2012) are described below.

Assay [1] addresses T1, Factor Xa (Homo sapiens, UniProt P00742).
T1 chain: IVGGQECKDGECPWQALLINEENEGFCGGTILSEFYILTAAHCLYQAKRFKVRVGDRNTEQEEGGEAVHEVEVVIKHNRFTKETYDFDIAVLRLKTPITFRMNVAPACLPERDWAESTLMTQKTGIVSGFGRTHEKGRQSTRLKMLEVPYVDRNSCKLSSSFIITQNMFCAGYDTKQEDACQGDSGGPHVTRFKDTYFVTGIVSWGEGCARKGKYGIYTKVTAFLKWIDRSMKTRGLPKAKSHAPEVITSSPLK
In words: SPR steady-state.

For assay [2], the target named is T1, Factor Xa. In words: SPR kinetics. Background: SPR reads the build-up and loss of mass on a sensor chip optically.
The target of assay [3] is T1, Factor Xa. In words: ITC.
In assay [4] the target is T1, Factor Xa. In words: chromogenic substrate S2222 inhibition, apparent Ki.
Assay [5] addresses T1, Factor Xa. In words: chromogenic substrate S2222 inhibition, alphaKi.

B1: Lufaxin 1-278 (protein)
chain: DGDEYFIGKYKEKDETLFFASYGLKRDPCQIVLGYKCSNNQTHFVLNFKTNKKSCISAIKLTSYPKINQNSDLTKNLYCQTGGIGTDNCKLVFKKRKRQIAANIEIYGIPAKKCSFKDRYIGADPLHVDSYGLPYQFDQEHGWNVERYNIFKDTRFSTEVFYHKNGLFNTQITYLAEEDSFSEAREITAKDIKKKFSIILPNEEYKRISFLDVYWFQETMRKKPKYPYIHYNGECSNENKTCELVFDTDELMTYALVKVFTNPESDGSRLKEEDLGRG
The term Kd denotes a measure of binding affinity in units of concentration. Take B1: the figures for the Kd with Factor Xa [1], in the assay with Factor Xa [2] and with Factor Xa [3] were 9.69 nM, 3.86 nM and 2.1 nM, respectively. In the assay with Factor Xa [4], the Ki is 0.95 nM.

B2: Lufaxin 1-278 (protein)
chain: B1 chain
modifications: S2222 substrate-bound FXa
For B2, the Ki in the assay with Factor Xa [5] came to 2.21 nM.
